From publication PMC314469, “Protein Interaction Networks by Proteome Peptide Scanning” (PLoS Biology, 2004)

T1: Myo5 SH3 (MYO5_YEAST), Q04439
T1 chain: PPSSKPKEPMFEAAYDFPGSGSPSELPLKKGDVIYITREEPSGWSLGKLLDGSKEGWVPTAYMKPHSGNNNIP


Target: T1, Myo5 SH3 (MYO5_YEAST), Q04439
Test: SPOT array

Binder | normalised SPOT signal, Boehringer light units (BLU); mean over the file's lines of this peptide
KLVKFKLPFLPISD [YGR150C 548-561] | 974
KLWDLSKPSKPLKE [YAR003W 97-110] | 233
KPAVLHYPPIPASA [YAL031C 680-693] | 183
KPKMLPIPSKPTLF [YPL243W 531-544] | 1360
KPKVLFHPHWPLYI [YJL105W 401-414] | 196
KPLKFLRPTYPDLS [YHR027C 87-100] | 149
KPLNLSKPISPPPS [YJL157C 78-91] | 254
KPMLHNVPHDPSLP [YDR231C 158-171] | 413
KPPSYPSPAQPPKS [YER114C 444-457] | 11900
KPPSYPSPVQPPQS [YBL085W 399-412] | 16500
KPPVYRLPPLPRLK [YDL045W-A 4-17] | 2310
KPSGYYGPNSPLKL [YKL108W 199-212] | 159
KPSLWEAPQNPPYS [YML035C 587-600] | 152
KPSVMKLPPSPKQP [YFR030W 871-884] | 380
KWKSLFPPFFPSDI [YCL016C 283-296] | 242
KWTIMPHPNRPNAA [YOL008W 138-151] | 429
LAIRLSWPPAPVTL [YDL151C 103-116] | 155
LAKDLIVPRRPEWN [YGL099W 130-143] | 117000
LALLMTDPDAPSRT [YLR179C 73-86] | 178
LASPFHDPILPRRT [YHL028W 522-535] | 288

Binder | normalised SPOT signal, Boehringer light units (BLU); mean over the file's lines of this peptide
LEDALHVPTNPEIL [YDR416W 508-521] | 191
LEFSHYAPTAPHVQ [YLR069C 734-747] | 103
LELLLSLPTGPESK [YBR172C 710-723] | 143
LFKRLPVPAPPMDS [YNL238W 106-119] | 145
LLAEHNGPKLPHIP [YKR021W 416-429] | 198
LLAKLPLPRDPRVA [YPR183W 188-201] | 344
LLISHLFPTNPEFS [YER155C 650-663] | 414
LLKGYIPPYKPIVK [YMR104C 608-621] | 169
LLLPLLLPPLPSVK [YKL147C 80-93] | 6470
LLQSLRLPTTPTER [YCL040W 391-404] | 125
LLYLMTYPQQPMVK [YOR207C 724-737] | 162
LPAPPPPPRRGPA [YOR181W 341-353] | 43400
LPAVFSAPIRPDIV [YBR031W 22-35] | 202
LPEELMRPKVPELL [YPL012W 957-970] | 145
LPFMYLLPRFPSHI [YGR065C 182-195] | 455
LPQQHLSPLIPIAI [YGL035C 132-145] | 45.3
LPTALLSPLRPSLS [YCL051W 199-212] | 115
LPTGYYEPMKPSSL [YLL016W 406-419] | 165
LWILYMSPDVPSAS [YPL058C 1310-1323] | 253
LWKPLVYPTSPSEH [YFR019W 1841-1854] | 185

Binder | normalised SPOT signal, Boehringer light units (BLU); mean over the file's lines of this peptide
MAKSFADPRVPQPM [YPR112C 91-104] | 172
MANILYYPQKPLGT [YOR151C 792-805] | 152
MASFLPVPEKPNLI [YNL206C 125-138] | 161
MASGLLPPIQPGFD [YJR106W 230-243] | 223
MEEPFIWPEEPRPD [YDR405W 164-177] | 79.7
MFELLSHPKVPVGM [YHR197W 602-615] | 268
MFNLLQKPEQPHQN [YLR291C 121-134] | 204
MFTYFQEPPFPDLL [YPL063W 167-180] | 239
MLFSWPYPEAPIEG [YPL087W 1-14] | 126
MLKALFTPLIPVSF [YML068W 248-261] | 257
MLNEHGVPVVPSRE [YER014W 436-449] | 199
NAIAMALPNEPYPA [YLR342W 137-150] | 96.8
NAIEMALPNDPYPA [YGR032W 156-169] | 87.2
NALGLDPPPSPEDP [YLR203C 42-55] | 241
NALKLIHPFMPFIS [YGR094W 895-908] | 170
NASAMPAPYMPYYY [YIR010W 139-152] | 226
NASLLRDPSAPYAH [YER064C 198-211] | 134
NEAPMLSPQRPYST [YLR006C 162-175] | 111
